Experimental findings from paper PMC7156504 (2020) are described below.

Where a chain is given by its changes, count along the chain named. Names may count otherwise.

The IC50 is the point on the concentration scale where inhibition reaches its midpoint. Higher therefore signals lower potency.

Sequences and labels used below:
B1: evolved scFvWFL variant 37 reformatted as IgG1 (antibody, V domains shown)
VH: QVQLVPSGAEVKKPGSSVKVSCKASGGTFWFGAFTWVRQAPGQGLEWMGGIIPTFGLTNLAQNFQGRVTITADESTSTVYMELSSLRSEDTAVYYCARSSRIYDLNPSLTAYYDMDVWGQGTMVTVSS
VL: QSVLTQPPSVSAAPGQKVTISCSGPSSDIGNNYVSWYQQLPGTAPKLLIYDNNKRPSGIPDRFSGSKSGTSATLGITGLQTGDEADYYCGTWDSSLSAWVFGGGTKLTVL
B2: evolved scFvWFL variant 11 reformatted as IgG1 (antibody, V domains shown)
VH: B1 VH with P6R, T54I, T110A
VL: B1 VL with S21P, P25S, I76V
B3: evolved scFvWFL variant 176 reformatted as IgG1 (antibody, V domains shown)
VH: B1 VH with P6R, T54I
VL: B1 VL with P25S
B4: evolved scFvWFL variant 139 reformatted as IgG1 (antibody, V domains shown)
VH: B1 VH with P6Q, S25G, F31S, T54I, I102T
VL: B1 VL with P25S, S71T
B5: evolved scFvWFL variant 128 reformatted as IgG1 (antibody, V domains shown)
VH: B1 VH with P6Q, T54I, Y112D
VL: B1 VL with K17E, P25S, L40P, T43A
B6: evolved scFvWFL variant 72 reformatted as IgG1 (antibody, V domains shown)
VH: B1 VH with P6Q, F29S, I51T, T54I, E89D, D116G
VL: B1 VL with P25S, N31D
B7: evolved scFvWFL variant 16 reformatted as IgG1 (antibody, V domains shown)
VH: B1 VH with P6Q, F31S, T54I, F55S, V79A
VL: B1 VL with P25S, F101I
B8: evolved scFvWFL variant 59 reformatted as IgG1 (antibody, V domains shown)
VH: B1 VH with P6Q, W30R, V37A, T54I, V68A
VL: B1 VL with P25S, I49T, D61G
B9: IgGSTT, variant of MEDI1912 with W35S, F36T and L64T in VH (antibody, V domains shown)
VH: B1 VH with P6Q, W30S, F31T, T54I, L57T
VL: B1 VL with P25S
B10: IgGWFL (MEDI1912), human IgG1 antibody specific for human nerve growth factor (antibody, V domains shown)
VH: B1 VH with P6Q, T54I
VL: B1 VL with P25S
B11: evolved scFvWFL variant 130 reformatted as IgG1 (antibody, V domains shown)
VH: B1 VH with P6Q, T28A, I52T, T54I, L57H
VL: B1 VL with P25S
B12: evolved scFvWFL variant 126 reformatted as IgG1 (antibody, V domains shown)
VH: B1 VH with P6Q, I51F, T54I, F55S
VL: B1 VL with P25S
B13: MEDI578 (the parent antibody prior to affinity maturation into MEDI1912) (antibody, V domains shown)
VH: QVQLVQSGAEVKKPGSSVKVSCKASGGTFSTYGISWVRQAPGQGLEWMGGIIPIFDTGNSAQSFQGRVTITADESTSTAYMELSSLRSEDTAVYYCARSSRIYDLNPSLTAYYDMDVWGQGTMVTVSS
VL: B1 VL with P25S, D28N

The target of the test is biotinylated nerve growth factor (NGF) (human, UniProt P01138 122-241, biotin (biotinylated in-house, sites not stated)). Put plainly: FRET; epitope competition with labelled IgGWFL.
Sequence of biotinylated nerve growth factor (NGF) (P01138 122-241): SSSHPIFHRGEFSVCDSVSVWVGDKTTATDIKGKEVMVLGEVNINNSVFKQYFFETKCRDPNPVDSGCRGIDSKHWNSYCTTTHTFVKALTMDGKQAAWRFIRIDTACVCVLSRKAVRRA
For the molecule B1, the IC50 was 136 pM. Take B2: the IC50 stood at 251 pM.

In turn, B3 returned a 50% inhibitory concentration (IC50) of 201 pM. The figure for B4 is 649 pM. The figure for B5 is 1410 pM; for B6 it is 1910 pM. Molecule B7 registered an IC50 of 935 pM. Regarding B8, the IC50 amounted to 177 pM. Compared with the last molecule, the IC50 is about 5.3-fold lower. Take B9: the IC50 amounted to 573 pM.

Molecule B10 came in with an IC50 of 363 pM. B11 came in with a half-maximal inhibitory concentration (IC50) of 2060 pM.

Molecule B12 registered an IC50 of 5690 pM. Take B13: the IC50 worked out at 36800 pM.
